The target in this assay is LexA-TAP-Vpr (yeast two-hybrid bait) (HIV-1) (UniProt P05928). The assay can be described thus: two-hybrid; LexA baits (pEG202) and B42 preys (pJG4-5) in S. cerevisiae EGY48; β-galactosidase activity by the o-nitrophenyl-β-D-galactopyranoside method.

The record followed here is article PMC1914068.

In turn, “Vpr as yeast two-hybrid fusion (LexA-Vpr bait and B42-Vpr prey) (from UniProt P05928 1-96) (natural protein)” returned a fold weaker than dimerization of wild-type Vpr (β-galactosidase activity) of 3 fold.
